Tests used:
[1] = substrate: O=C(O)C[C@H](O)C(=O)O; assay: purified protein, by the assay type; format: biochemical, Bacillus subtilis strain 168; conditions: other: 37° C., pH 8, NAD
From the text: (§1) Ligation products were transformed into E. coli DH5α cells.

[2] = substrate: O=C(O)C[C@H](O)C(=O)O; assay: purified protein, by the assay type; conditions: other: 37° C., pH 8, NAD
[3] = substrate: O=C(O)C[C@H](O)C(=O)O; assay: cells, lysate or membranes named; conditions: other: 37° C., pH 8, NAD
[4] = substrate: O=C(O)[C@@H](O)CCO; assay: cells, lysate or membranes named; format: biochemical, Escherichia coli; conditions: other: 37° C., pH 8, 10 mM NAD
Method: Activity of the cytosolic DHB dehydrogenases (Ec-Mdh, Bs-Mdh, Ll-LdhA) was assayed by following the DHB-dependent reduction of NAD^+.
The reaction mixture contained 60 mM Hepes (pH 8), 50 mM potassium chloride, 5 mM MgCl2, 10 mM NAD, (optionally, 5 mM fructose-1,6-bisphosphate (F16bP)) (all products from Sigma), and appropriate amounts of purified enzyme or cell extract. Reactions were started by adding 50 mM (L)-2,4-dihydroxybutyrate (Rhodia).
All enzymatic assays were carried out at 37° C. in 96-well flat bottomed microtiter plates in a final volume of 250 μL.

[5] = substrate: C[C@H](O)C(=O)O; assay: purified protein, by the assay type; format: biochemical, Escherichia coli MG1655; conditions: other: 37° C., pH 7, DCIP reduction
Method: as §1
(§2) Activity of the membrane-associated DHB dehydrogenase (Ec-LldD) was assayed by following the DHB-dependent reduction of 2,6-dichloroindophenol (DCIP). (L)-2,4-dihydroxybutyrate+DCIPox→2-oxo-4-hydroxybutyrate+DCIPred Reaction scheme 2:
(§3) Reactions were started by adding 20 mM (L)-2,4-dihydroxybutyrate (Rhodia).

[6] = substrate: O=C(O)[C@@H](O)CCO; assay: purified protein, by the assay type; format: biochemical, Escherichia coli MG1655; conditions: other: 37° C., pH 7, 0.06 mM DCIP
Method: as §1, §2, §3

[7] = substrate: C[C@H](O)C(=O)O; assay: purified protein, by the assay type; conditions: other: 37° C., pH 8, NAD, optionally 5 mM fructose-1,6-bisphosphate

Protein	Km [3] [mM]	Km [4] [mM]	other results
Bacillus subtilis (L)-malate dehydrogenase Bs-Mdh, wild type, SEQ ID No. 126 (Bacillus subtilis subsp. subtilis str. 168) (protein, hexa-His (N); made in house; host or cells: E. coli BL21 (DE3) star) MGNTRKKVSVIGAGFTGATTAFLIAQKELADVVLVDIPQLENPTKGKALDMLEASPVQGFDAKITGTSNYEDTAGSDIVVITAGIARKPGMSRDDLVSTNEKIMRSVTQEIVKYSPDSIIVVLTNPVDAMTYAVYKESGFPKERVIGQSGVLDTARFRTFVAEELNLSVKDVTGFVLGGHGDDMVPLVRYSYAGGIPLETLIPKERIDAIVERTRKGGGEIVNLLGNGSAYYAPAASLTEMVEAILKDQRRVLPTIAYLEGEYGYEGIYLGVPTIVGGNGLEQIIELELTDYERAQLNKSVESVKNVMKVLS	–	–	Km [1]: 2.6 mM
Escherichia coli (L)-malate dehydrogenase Ec-Mdh, wild type, SEQ ID No. 124 (Escherichia coli K-12) (protein) MKVAVLGAAGGIGQALALLLKTQLPSGSELSLYDIAPVTPGVAVDLSHIPTAVKIKGFSGEDATPALEGADVVLISAGVARKPGMDRSDLFNVNAGIVKNLVQQVAKTCPKACIGIITNPVNTTVAIAAEVLKKAGVYDKNKLFGVTTLDIIRSNTFVAELKGKQPGEVEVPVIGGHSGVTILPLLSQVPGVSFTEQEVADLTKRIQNAGTEVVEAKAGGGSATLSMGQAAARFGLSLVRALQGEQGVVECAYVEGDGQYARFFSQPLLLGKNGVEERKSIGTLSAFEQNALEGMLDTLKKDIALGEEFVNK	–	–	Km [2]: 0.56 mM
Escherichia coli malate dehydrogenase Ec-Mdh variant R81A M85E, SEQ ID No. 160 (Escherichia coli K-12; M85E/R81A) (protein) MKVAVLGAAGGIGQALALLLKTQLPSGSELSLYDIAPVTPGVAVDLSHIPTAVKIKGFSGEDATPALEGADVVLISAGVAAKPGEDRSDLFNVNAGIVKNLVQQVAKTCPKACIGIITNPVNTTVAIAAEVLKKAGVYDKNKLFGVTTLDIIRSNTFVAELKGKQPGEVEVPVIGGHSGVTILPLLSQVPGVSFTEQEVADLTKRIQNAGTEVVEAKAGGGSATLSMGQAAARFGLSLVRALQGEQGVVECAYVEGDGQYARFFSQPLLLGKNGVEERKSIGTLSAFEQNALEGMLDTLKKDIALGEEFVNK	8.6	48	–
Escherichia coli malate dehydrogenase Ec-Mdh variant R81A M85Q I12V, SEQ ID No. 164 (Escherichia coli K-12; I12V/M85Q/R81A) (protein) MKVAVLGAAGGVGQALALLLKTQLPSGSELSLYDIAPVTPGVAVDLSHIPTAVKIKGFSGEDATPALEGADVVLISAGVAAKPGQDRSDLFNVNAGIVKNLVQQVAKTCPKACIGIITNPVNTTVAIAAEVLKKAGVYDKNKLFGVTTLDIIRSNTFVAELKGKQPGEVEVPVIGGHSGVTILPLLSQVPGVSFTEQEVADLTKRIQNAGTEVVEAKAGGGSATLSMGQAAARFGLSLVRALQGEQGVVECAYVEGDGQYARFFSQPLLLGKNGVEERKSIGTLSAFEQNALEGMLDTLKKDIALGEEFVNK	12.5	19	–
Escherichia coli malate dehydrogenase Ec-Mdh variant R81A M85Q, SEQ ID No. 158 (Escherichia coli K-12; M85Q/R81A) (protein) MKVAVLGAAGGIGQALALLLKTQLPSGSELSLYDIAPVTPGVAVDLSHIPTAVKIKGFSGEDATPALEGADVVLISAGVAAKPGQDRSDLFNVNAGIVKNLVQQVAKTCPKACIGIITNPVNTTVAIAAEVLKKAGVYDKNKLFGVTTLDIIRSNTFVAELKGKQPGEVEVPVIGGHSGVTILPLLSQVPGVSFTEQEVADLTKRIQNAGTEVVEAKAGGGSATLSMGQAAARFGLSLVRALQGEQGVVECAYVEGDGQYARFFSQPLLLGKNGVEERKSIGTLSAFEQNALEGMLDTLKKDIALGEEFVNK	2.2	29	–
Escherichia coli malate dehydrogenase Ec-Mdh variant R81A D86S, SEQ ID No. 170 (Escherichia coli K-12; D86S/R81A) (protein) MKVAVLGAAGGIGQALALLLKTQLPSGSELSLYDIAPVTPGVAVDLSHIPTAVKIKGFSGEDATPALEGADVVLISAGVAAKPGMSRSDLFNVNAGIVKNLVQQVAKTCPKACIGIITNPVNTTVAIAAEVLKKAGVYDKNKLFGVTTLDIIRSNTFVAELKGKQPGEVEVPVIGGHSGVTILPLLSQVPGVSFTEQEVADLTKRIQNAGTEVVEAKAGGGSATLSMGQAAARFGLSLVRALQGEQGVVECAYVEGDGQYARFFSQPLLLGKNGVEERKSIGTLSAFEQNALEGMLDTLKKDIALGEEFVNK	10.3	28	–
Escherichia coli malate dehydrogenase Ec-Mdh variant R81A, SEQ ID No. 156 (Escherichia coli K-12; R81A) (protein) MKVAVLGAAGGIGQALALLLKTQLPSGSELSLYDIAPVTPGVAVDLSHIPTAVKIKGFSGEDATPALEGADVVLISAGVAAKPGMDRSDLFNVNAGIVKNLVQQVAKTCPKACIGIITNPVNTTVAIAAEVLKKAGVYDKNKLFGVTTLDIIRSNTFVAELKGKQPGEVEVPVIGGHSGVTILPLLSQVPGVSFTEQEVADLTKRIQNAGTEVVEAKAGGGSATLSMGQAAARFGLSLVRALQGEQGVVECAYVEGDGQYARFFSQPLLLGKNGVEERKSIGTLSAFEQNALEGMLDTLKKDIALGEEFVNK	0.7	33	–
Escherichia coli malate dehydrogenase Ec-Mdh variant R81A M85E I12V, SEQ ID No. 166 (Escherichia coli K-12; I12V/M85E/R81A) (protein) MKVAVLGAAGGVGQALALLLKTQLPSGSELSLYDIAPVTPGVAVDLSHIPTAVKIKGFSGEDATPALEGADVVLISAGVAAKPGEDRSDLFNVNAGIVKNLVQQVAKTCPKACIGIITNPVNTTVAIAAEVLKKAGVYDKNKLFGVTTLDIIRSNTFVAELKGKQPGEVEVPVIGGHSGVTILPLLSQVPGVSFTEQEVADLTKRIQNAGTEVVEAKAGGGSATLSMGQAAARFGLSLVRALQGEQGVVECAYVEGDGQYARFFSQPLLLGKNGVEERKSIGTLSAFEQNALEGMLDTLKKDIALGEEFVNK	11.2	20	–
Escherichia coli malate dehydrogenase Ec-Mdh variant R81A I12V, SEQ ID No. 162 (Escherichia coli K-12; I12V/R81A) (protein) MKVAVLGAAGGVGQALALLLKTQLPSGSELSLYDIAPVTPGVAVDLSHIPTAVKIKGFSGEDATPALEGADVVLISAGVAAKPGMDRSDLFNVNAGIVKNLVQQVAKTCPKACIGIITNPVNTTVAIAAEVLKKAGVYDKNKLFGVTTLDIIRSNTFVAELKGKQPGEVEVPVIGGHSGVTILPLLSQVPGVSFTEQEVADLTKRIQNAGTEVVEAKAGGGSATLSMGQAAARFGLSLVRALQGEQGVVECAYVEGDGQYARFFSQPLLLGKNGVEERKSIGTLSAFEQNALEGMLDTLKKDIALGEEFVNK	8.5	–	–
Escherichia coli membrane associated (L)-lactate dehydrogenase Ec-LldD, wild type, SEQ ID No. 122 (Escherichia coli K-12) (protein, hexa-His (N); made in house; host or cells: E. coli BL21 (DE3) star) MIISAASDYRAAAQRILPPFLFHYMDGGAYSEYTLRRNVEDLSEVALRQRILKNMSDLSLETTLFNEKLSMPVALAPVGLCGMYARRGEVQAAKAADAHGIPFTLSTVSVCPIEEVAPAIKRPMWFQLYVLRDRGFMRNALERAKAAGCSTLVFTVDMPTPGARYRDAHSGMSGPNAAMRRYLQAVTHPQWAWDVGLNGRPHDLGNISAYLGKPTGLEDYIGWLGNNFDPSISWKDLEWIRDFWDGPMVIKGILDPEDARDAVRFGADGIVVSNHGGRQLDGVLSSARALPAIADAVKGDIAILADSGIRNGLDVVRMIALGADTVLLGRAFLYALATAGQAGVANLLNLIEKEMKVAMTLTGAKSISEITQDSLVQGLGKELPAALAPMAKGNAA	–	–	Km [5]: 0.13 mM; Km [6]: 1.31 mM
Lactococcus lactis (L)-lactate dehydrogenase Ll-LdhA, wild type, SEQ ID No. 120 (Lactococcus lactis subsp. lactis Il1403) (protein) MADKQRKKVILVGDGAVGSSYAFALVNQGIAQELGIVDLFKEKTQGDAEDLSHALAFTSPKKIYSADYSDASDADLVVLTSGAPQKPGETRLDLVEKNLRITKDVVTKIVASGFKGIFLVAANPVDILTYATWKFSGFPKNRVVGSGTSLDTARFRQALAEKVDVDARSIHAYIMGEHGDSEFAVWSHANVAGVKLEQWFQENDYLNEAEIVELFESVRDAAYSIIAKKGATFYGVAVALARITKAILDDEHAVLPVSVFQDGQYGVSDCYLGQPAVVGAEGVVNPIHIPLNDAEMQKMEASGAQLKAIIDEAFAKEEFASAVKN	–	–	Km [7]: 21.2 mM

From patent publication US9605283B2, “Microorganism modified for the production of 1,3-propanediol” (INSTITUT NATIONAL DES SCIENCES APPLIQUÉES, priority 2012, dated 2017)
